{"source": "paper PMC7229837", "about": "“Molecular architecture of the DNA-binding sites of the P-loop ATPases MipZ and ParA from Caulobacter crescentus”", "key": {"[1]": {"biological_target": "T1, ParA WT (Caulobacter crescentus, UniProt B8GW31 1-267)", "T1 sequence": "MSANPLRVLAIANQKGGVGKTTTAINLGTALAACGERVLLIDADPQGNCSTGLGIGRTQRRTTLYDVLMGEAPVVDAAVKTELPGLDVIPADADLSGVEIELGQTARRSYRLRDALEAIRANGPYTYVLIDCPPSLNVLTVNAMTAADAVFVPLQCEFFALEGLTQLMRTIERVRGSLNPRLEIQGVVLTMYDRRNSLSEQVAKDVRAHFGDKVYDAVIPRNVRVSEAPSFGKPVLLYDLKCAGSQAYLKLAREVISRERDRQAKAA", "assay": "HDX-MS; 1 mM ATPgS; regions R1, R2, R4 protected; EMSA: 10 mM HEPES/NaOH pH 7.2, 150 mM NaCl, 10 mM MgCl2, 0.05% Tween 20, 0.46 mM ATPgS, room temp; BLI: 50 mM HEPES/NaOH pH 7.2, 50 mM NaCl, 5 mM MgCl2, 0.1 mM", "details": "protein: recombinant; tags: C-terminal His6; chain copies: 2; blunt"}, "[2]": {"biological_target": "T2, MipZ D42A (Caulobacter crescentus, UniProt Q9A6C9 1-278, D42A)", "T2 sequence": "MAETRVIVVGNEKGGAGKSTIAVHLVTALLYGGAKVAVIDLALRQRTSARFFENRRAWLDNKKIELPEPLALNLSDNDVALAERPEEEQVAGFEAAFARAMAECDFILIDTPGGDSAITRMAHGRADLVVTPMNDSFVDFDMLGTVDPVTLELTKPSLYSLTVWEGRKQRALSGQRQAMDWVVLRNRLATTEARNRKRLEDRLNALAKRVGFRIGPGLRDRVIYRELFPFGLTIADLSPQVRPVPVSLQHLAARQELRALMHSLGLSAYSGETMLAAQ", "assay": "HDX-MS; 1 mM ATPgS; regions R1, R3, R4 protected; EMSA: 10 mM HEPES/NaOH pH 7.2, 150 mM NaCl, 10 mM MgCl2, 0.05% Tween 20, 0.46 mM ATPgS, room temp; BLI: 50 mM HEPES/NaOH pH 7.2, 50 mM NaCl, 5 mM MgCl2, 0.1 mM", "details": "protein: recombinant; tags: C-terminal His6 (pET21a); chain copies: 2; blunt"}}, "data": [{"binder": "ran14-up/ran14-lo 14 bp (dsDNA) DNA 1: GCCGCCGCCGCCGC DNA 2: GCGGCGGCGGCGGC", "values": [{"measurement": "binding result", "setting": "[1]", "value": "binds"}, {"measurement": "binding result", "setting": "[2]", "value": "binds"}]}]}
